Experimental data from the Human Domainome abundance scans (Beltran et al. 2025).

B1: Membrane-associated guanylate kinase, WW and PDZ domain-containing protein 1, residues 352 to 401; numbered along this chain, Q96QZ7 (parent)
chain: TEELDSELELPAGWEKIEDPVYGIYYVDHINRKTQYENPVLEAKRKKQLE

Variants of: B1
Experiment: abundance fitness (aPCA) (normalised: wild type 0, dead -1); higher = more abundant; growth selection in yeast, the domain comes from the species named
Details: Homo sapiens

Abundance fitness: each site, then its substitutions
E2: G -0.086, R -0.095, C 0.319, N 0.372, D -0.314
E15: C -0.794, T -0.32, F -0.764, L -0.55, I -0.733, A -0.341, N -0.449, R -0.38, Q -0.229, M -0.262, H -0.393, K -0.328, Y -0.46, W -0.856
E7: A 0.056, P -0.217, H -0.217, D -0.039, W -0.181, V 0.03, S -0.153, I -0.314, N -0.228, F -0.236, M -0.046, R -0.037, Y -0.399, Q -0.404, G 0.05, K 0.111, L -0.057, T 0.053
G13: V -0.703, E -0.425, I -0.63, W -0.428, Q -0.282, C -0.339, M -0.448, H -0.54, K -0.368, Y -0.183, A -0.458, R -0.59, D -0.525, P -0.41, T -0.898
D5: F -0.006, V 0.001, A 0.047, K 0.086, W -0.303, C 0.032, H -0.192, Q -0.128, M -0.421, P 0.023, I 0, T 0.059
P11: S -0.417, W -0.519, I -0.424, Q -0.38, G -0.268, F -0.515, H -0.554, L -0.35, T -0.194, D -0.382, R -0.494, V -0.671, M -0.185, C -0.249, E -0.377, A -0.367, K -0.153, N -0.728
E18: C -0.132, D -0.15
